# Source: patent US20250382373A1 (BIOCYTOGEN PHARMACEUTICALS BEIJING, published 2025)
# Like-named read-outs stand apart in the source and are kept apart here.
# B1: M-6D12 (antibody, V domains shown)
# VH: QVQLQQSGPGLVKPSGTLSLTCAVSGGSISKSNWWTWVRQPPGKGLEWIGEIHHSGSTNYNPSLKSRVTISVEKTKNQFSLKLSSVTAADTAVYYCARGGGYGYDFDYWGQGTLVTVSS
# VL: not shown
# B2: M-8E2 (antibody, V domains shown)
# VH: QVQLVQSGPALVKPTQTLTLTCTFSGFSLYTSGVAVAWIRQPPGKALEWLALIYWDDDKWYTPSLKTRLSITKDTSKNQVVLTMTNMDPVDTATYYCAHRGSFNWNYGYFDYWGQGTLVTVSS
# VL: not shown
# B3: Telisotuzumab analog (antibody, human IgG1, kappa, V domains shown)
# VH: QVQLVQSGAEVKKPGASVKVSCKASGYIFTAYTMHWVRQAPGQGLEWMGWIKPNNGLANYAQKFQGRVTMTRDTSISTAYMELSRLRSDDTAVYYCARSEITTEFDYWGQGTLVTVSS
# VL: DIVMTQSPDSLAVSLGERATINCKSSESVDSYANSFLHWYQQKPGQPPKLLIYRASTRESGVPDRFSGSGSGTDFTLTISSLQAEDVAVYYCQQSKEDPLTFGGGTKVEIKR
# notes: Humanized IgG1 against MET
# B4: M-8H10 (antibody, V domains shown)
# VH: QVQLQQWGAGLLKPSETLSLTCAVYGGSFSGYYWTWIRQPPGKGLEWIGESNHGGSTNFNPSLKSRVTISVDTSKNHFSLKLSPVTAADTAVYYCTRGGTIFGLKDAFDIWGQGTMVTVSS
# VL: not shown
# B5: M-7D3 (antibody, V domains shown)
# VH: QVQLVQSGLTLVKPTQTLTLTCTFSGFSLSTTGVSVGWIRQPPGKALEWLALIYWDDDKHYSPSLKSRLTITKDTSKNQVVLTMTNMDPVDTATYYCAPGGYSSGWPGFYDLWGRGTLVTVSS
# VL: not shown
# B6: M-6E6 (antibody, V domains shown)
# VH: QVQLEQSGPTLVKPTQTLTLTCTFSGFSLSSTGVAMGWIRQPPGKALEWLALIYWDDDKHYSPSLESRLTITKDTFKNQVVLSMTNMDPLDTATYYCTHRRYTGYEDYWGQGILVTVSS
# VL: not shown
# B7: M-2F12 (antibody, V domains shown)
# VH: QVQLVQSGGGVVQPGRSLRLSCAASGFTFNNYGMDWVRQAPGKGLEWVAVIWNDGSKKYYGDFVKGRFTISRDNSKNTLYLEMNSLRAEDTAVYYCARDLEGGQLADAFDVWGQGTMVTVSS
# VL: not shown
# B8: M-2G10 (antibody, V domains shown)
# VH: EVQLVESGGGVVQPGRSLRLSCAASGFTFNICGIHWVRQAPGKGLEWVATISHDANDKYYADSVKGRFTISRDNSKNTLYLQMNSLRAEDTAVYYCARDGNRGYDGYFDYWGQGTLVTVSS
# VL: not shown
# Legend:
# [1] = molecular target: T1, monkey MET on fasMET-NIH3T3 cells (monkey (Macaca fascicularis)); test: flow cytometry on fasMET-NIH3T3 cells
# T1 sequence (chain, as listed by the source limits assumed): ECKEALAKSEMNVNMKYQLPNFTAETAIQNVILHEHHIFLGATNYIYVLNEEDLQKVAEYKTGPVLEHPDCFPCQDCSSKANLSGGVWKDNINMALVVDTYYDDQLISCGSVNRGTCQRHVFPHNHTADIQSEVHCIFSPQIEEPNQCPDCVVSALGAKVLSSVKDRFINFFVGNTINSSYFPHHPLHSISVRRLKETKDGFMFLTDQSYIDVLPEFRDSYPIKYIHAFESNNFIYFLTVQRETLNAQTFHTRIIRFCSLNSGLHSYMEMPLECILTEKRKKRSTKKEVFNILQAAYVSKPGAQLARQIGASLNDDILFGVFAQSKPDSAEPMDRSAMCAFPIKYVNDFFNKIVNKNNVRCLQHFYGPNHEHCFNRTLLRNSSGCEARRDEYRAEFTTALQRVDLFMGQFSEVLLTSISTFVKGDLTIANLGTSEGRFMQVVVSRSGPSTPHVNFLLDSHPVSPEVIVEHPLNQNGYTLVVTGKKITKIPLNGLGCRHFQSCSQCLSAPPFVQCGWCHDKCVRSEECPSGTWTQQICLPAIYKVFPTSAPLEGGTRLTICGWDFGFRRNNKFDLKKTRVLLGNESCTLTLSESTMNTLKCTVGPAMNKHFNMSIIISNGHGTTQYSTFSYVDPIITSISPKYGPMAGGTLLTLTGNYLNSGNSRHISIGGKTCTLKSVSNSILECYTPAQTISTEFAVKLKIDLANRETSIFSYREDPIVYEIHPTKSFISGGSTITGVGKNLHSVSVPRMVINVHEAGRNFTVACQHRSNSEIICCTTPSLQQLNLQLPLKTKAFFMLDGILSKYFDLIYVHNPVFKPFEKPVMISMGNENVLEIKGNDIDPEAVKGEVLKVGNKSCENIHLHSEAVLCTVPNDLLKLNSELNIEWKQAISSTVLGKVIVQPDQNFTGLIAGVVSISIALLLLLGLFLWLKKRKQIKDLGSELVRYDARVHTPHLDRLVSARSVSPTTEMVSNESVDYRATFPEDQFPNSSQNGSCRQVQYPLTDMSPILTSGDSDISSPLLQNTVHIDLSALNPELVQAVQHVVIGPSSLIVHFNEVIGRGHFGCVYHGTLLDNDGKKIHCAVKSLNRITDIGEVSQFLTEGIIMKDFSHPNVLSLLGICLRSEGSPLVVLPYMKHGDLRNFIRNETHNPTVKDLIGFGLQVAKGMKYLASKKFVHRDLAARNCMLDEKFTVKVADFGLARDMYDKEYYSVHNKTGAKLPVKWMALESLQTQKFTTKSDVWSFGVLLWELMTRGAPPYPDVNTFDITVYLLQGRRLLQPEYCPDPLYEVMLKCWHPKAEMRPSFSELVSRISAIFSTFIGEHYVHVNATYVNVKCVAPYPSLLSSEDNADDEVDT
# [2] = molecular target: human MET on hMET-NIH3T3 cells (human, UniProt P08581 25-1390); test: flow cytometry on hMET-NIH3T3 cells
# Sequence of human MET on hMET-NIH3T3 cells (P08581 25-1390 limits assumed): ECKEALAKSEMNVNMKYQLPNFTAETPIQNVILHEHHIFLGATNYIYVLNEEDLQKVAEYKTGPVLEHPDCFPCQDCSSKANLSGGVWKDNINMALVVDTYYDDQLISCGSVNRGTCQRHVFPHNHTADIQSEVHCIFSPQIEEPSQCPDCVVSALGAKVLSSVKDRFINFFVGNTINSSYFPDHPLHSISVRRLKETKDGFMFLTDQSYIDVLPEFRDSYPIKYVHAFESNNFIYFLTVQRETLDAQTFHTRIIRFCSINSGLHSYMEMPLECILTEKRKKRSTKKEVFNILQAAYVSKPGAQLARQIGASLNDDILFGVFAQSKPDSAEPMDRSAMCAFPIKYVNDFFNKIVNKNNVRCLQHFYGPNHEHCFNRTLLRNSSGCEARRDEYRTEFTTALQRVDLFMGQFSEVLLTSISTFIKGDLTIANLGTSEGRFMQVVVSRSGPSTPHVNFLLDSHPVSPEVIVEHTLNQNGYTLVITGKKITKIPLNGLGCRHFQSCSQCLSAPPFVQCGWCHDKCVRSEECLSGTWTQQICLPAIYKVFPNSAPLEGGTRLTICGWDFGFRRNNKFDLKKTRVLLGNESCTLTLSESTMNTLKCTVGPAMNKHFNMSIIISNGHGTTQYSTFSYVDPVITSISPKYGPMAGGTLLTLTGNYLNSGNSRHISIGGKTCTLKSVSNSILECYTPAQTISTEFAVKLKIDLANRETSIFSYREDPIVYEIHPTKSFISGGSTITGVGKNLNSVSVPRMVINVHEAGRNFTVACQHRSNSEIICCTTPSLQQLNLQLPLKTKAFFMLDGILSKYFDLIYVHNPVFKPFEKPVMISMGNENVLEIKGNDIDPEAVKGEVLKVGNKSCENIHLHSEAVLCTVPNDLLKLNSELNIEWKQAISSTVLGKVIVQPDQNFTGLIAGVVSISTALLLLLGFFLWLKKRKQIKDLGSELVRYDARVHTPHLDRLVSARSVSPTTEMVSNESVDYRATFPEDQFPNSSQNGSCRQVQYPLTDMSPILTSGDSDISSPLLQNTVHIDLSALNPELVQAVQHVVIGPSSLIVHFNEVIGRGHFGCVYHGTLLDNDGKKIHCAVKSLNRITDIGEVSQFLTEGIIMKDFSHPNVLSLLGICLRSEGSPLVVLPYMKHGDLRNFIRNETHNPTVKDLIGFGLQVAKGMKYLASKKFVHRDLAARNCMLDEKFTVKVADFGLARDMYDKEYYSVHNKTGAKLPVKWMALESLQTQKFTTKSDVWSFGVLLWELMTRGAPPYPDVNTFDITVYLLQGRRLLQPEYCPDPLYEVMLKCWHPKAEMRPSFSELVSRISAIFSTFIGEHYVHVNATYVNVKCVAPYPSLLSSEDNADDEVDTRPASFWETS
# [3] = molecular target: T2, dog MET on dMET-NIH3T3 cells (dog (Canis lupus, printed 'Cans lupus'), UniProt Q75ZY9 25-1382); test: flow cytometry on dMET-NIH3T3 cells (5.33% positive cells)
# T2 construct: also called dMET-NIH13T3 [sic]
# [4] = molecular target: T3, His-tagged human MET protein (human, UniProt P08581 25-932); test: SPR (Biacore 8K), antibody on Protein A chip
# T3 construct: Bought protein; also called hMET-His; not shown: His tag
# T3 sequence (P08581 25-932 limits assumed): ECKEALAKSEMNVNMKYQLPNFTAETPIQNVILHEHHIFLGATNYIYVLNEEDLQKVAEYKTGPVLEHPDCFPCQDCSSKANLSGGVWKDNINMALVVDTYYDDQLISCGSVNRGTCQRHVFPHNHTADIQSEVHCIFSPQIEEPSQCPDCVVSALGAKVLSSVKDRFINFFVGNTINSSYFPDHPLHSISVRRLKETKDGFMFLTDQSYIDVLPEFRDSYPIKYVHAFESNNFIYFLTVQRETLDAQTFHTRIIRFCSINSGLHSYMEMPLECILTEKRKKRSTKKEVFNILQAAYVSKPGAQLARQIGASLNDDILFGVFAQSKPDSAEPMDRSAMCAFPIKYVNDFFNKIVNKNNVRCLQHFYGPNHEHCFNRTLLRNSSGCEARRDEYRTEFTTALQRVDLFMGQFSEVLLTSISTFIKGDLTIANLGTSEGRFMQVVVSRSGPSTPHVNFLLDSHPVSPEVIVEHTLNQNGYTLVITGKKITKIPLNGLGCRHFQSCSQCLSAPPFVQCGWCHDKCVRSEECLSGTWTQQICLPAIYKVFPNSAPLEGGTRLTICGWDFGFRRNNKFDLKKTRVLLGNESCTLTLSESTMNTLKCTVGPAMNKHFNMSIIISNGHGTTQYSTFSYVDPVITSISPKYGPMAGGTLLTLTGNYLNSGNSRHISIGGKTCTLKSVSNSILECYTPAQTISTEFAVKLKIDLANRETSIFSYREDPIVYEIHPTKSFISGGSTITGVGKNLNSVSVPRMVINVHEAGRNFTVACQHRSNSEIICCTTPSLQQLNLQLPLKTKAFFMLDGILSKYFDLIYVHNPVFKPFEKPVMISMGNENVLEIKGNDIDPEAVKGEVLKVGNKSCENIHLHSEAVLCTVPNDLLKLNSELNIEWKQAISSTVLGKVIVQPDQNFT
# His-tagged dog MET [5] = molecular target: T4, His-tagged dog MET (dog, UniProt Q75ZY9 25-933, limits assumed); test: SPR (Biacore 8K), antibody on Protein A chip; legend: - means no binding
# T4 construct: Bought protein; also called dMET-His; not shown: His tag
# His-tagged dog MET [6] = molecular target: T4, His-tagged dog MET; test: SPR (Biacore 8K), antibody on Protein A chip
# [7] = molecular target: T2, dog MET on dMET-NIH3T3 cells; test: flow cytometry on dMET-NIH3T3 cells
# [8] = molecular target: T5, His-tagged monkey EGFR protein (monkey (crab-eating macaque; Macaca …, UniProt A0A2K5WK39 25-645); test: SPR (Biacore 8K), Protein A chip
# T5 construct: also called fasEGFR-His; not shown: His tag
# [9] = molecular target: T6, His-tagged human EGFR protein (human, UniProt P00533 25-645); test: SPR (Biacore 8K), Protein A chip
# T6 construct: Bought protein; also called hEGFR-His; not shown: His tag
# [10] = molecular target: T3, His-tagged human MET protein; test: SPR (Biacore 8K), Protein A chip
# His-tagged dog MET [11] = molecular target: T4, His-tagged dog MET; test: SPR (Biacore 8K), antibody on Protein A chip; remark: listed apart in the source
# [12] = molecular target: T2, dog MET on dMET-NIH3T3 cells; test: flow cytometry on dMET-NIH3T3 cells (1.44% positive cells)
# [13] = molecular target: T1, monkey MET on fasMET-NIH3T3 cells; test: flow cytometry on fasMET-NIH3T3 cells (0.18% positive cells)
# human MET on SNU-5 cells = molecular target: T7, human MET on SNU-5 cells (human, UniProt P08581 25-1390); test: flow cytometry on SNU-5 cells
# T7 construct: whole, on cells; Endogenous MET of SNU-5 cells
# T7 sequence (P08581 25-1390): as the sequence (P08581 25-1390 limits assumed) above
# [14] = molecular target: T3, His-tagged human MET protein; test: SPR (Biacore 8K), antibody on Protein A chip; remark: listed apart in the source
# [15] = molecular target: T1, monkey MET on fasMET-NIH3T3 cells; test: flow cytometry on fasMET-NIH3T3 cells; remark: listed apart in the source
Binder,Percentage of Positive Cells [1],Percentage of Positive Cells [2],Kd [4],koff [4],kon [4],Kd (His-tagged dog MET [6]),koff (His-tagged dog MET [6]),kon (His-tagged dog MET [6]),Percentage of Positive Cells [7],other results
B1,71.4%,99.8%,60.6 nM,0.00237 s⁻¹,39100 M⁻¹ s⁻¹,–,–,–,–,binding result [3]: no binding; binding result (His-tagged dog MET [5]): no binding
B2,62.2%,99.6%,13.1 nM,0.000683 s⁻¹,52200 M⁻¹ s⁻¹,50 nM,0.00384 s⁻¹,76900 M⁻¹ s⁻¹,78.8%,–
B3,–,–,–,–,–,–,–,–,–,binding result [8]: no binding (tested: antigen up to 400 nM); binding result [9]: no binding (tested: antigen up to 400 nM); Kd [10]: 0.972 nM; koff [10]: 0.0001 s⁻¹; kon [10]: 103000 M⁻¹ s⁻¹; binding result (His-tagged dog MET [11]): no binding
B4,67.8%,99.8%,19.9 nM,0.00138 s⁻¹,69700 M⁻¹ s⁻¹,–,–,–,–,binding result (His-tagged dog MET [5]): no binding; binding result [12]: no binding
B5,63.4%,99.6%,11.6 nM,0.000684 s⁻¹,59100 M⁻¹ s⁻¹,62.3 nM,0.00343 s⁻¹,55000 M⁻¹ s⁻¹,74.7%,–
B6,49.2%,99.2%,10.1 nM,0.000634 s⁻¹,62500 M⁻¹ s⁻¹,253 nM,0.0175 s⁻¹,69000 M⁻¹ s⁻¹,73.2%,–
B7,–,–,–,–,–,–,–,–,–,binding result [13]: no binding; Percentage of Positive Cells (human MET on SNU-5 cells): 95.6%
B8,–,–,–,–,–,–,–,–,–,Kd [14]: 31.9 nM; koff [14]: 0.00605 s⁻¹; kon [14]: 189000 M⁻¹ s⁻¹; Percentage of Positive Cells (human MET on SNU-5 cells): 98.7%; binding result [8]: no binding (tested: antigen up to 400 nM); binding result [9]: no binding (tested: antigen up to 400 nM); Kd [10]: 63.6 nM; koff [10]: 0.00362 s⁻¹; kon [10]: 57000 M⁻¹ s⁻¹; Percentage of Positive Cells [15]: 21%
